This assay concerns the target T1, 新型冠状病毒野生型Spike RBD蛋白 (新型冠状病毒野生型 (SARS-CoV-2 wild type), UniProt P0DTC2 319-537).
T1 construct: domain: Spike RBD
The assay is described as follows: ELISA binding experiment (Fig. 3).

B1: 克隆号为3A7C12的抗体 (antibody, V domains shown)
VH: EVQLVESGGGLVKPGGSLRLSCAASGFTFSSYSMNWVRQAPGKGLEWVSSISSGSSYIYFADSVKGRFTISRDNAKNSLFLQMNSLRAEDTATYYCARAPLGYDSSGYFTMYYFDYWGQGTLVTVSS
VL: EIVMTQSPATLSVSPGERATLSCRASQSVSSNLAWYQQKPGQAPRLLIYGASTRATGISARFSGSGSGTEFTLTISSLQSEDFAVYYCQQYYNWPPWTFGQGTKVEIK
notes: also called 3A7C12克隆号抗体
In the case of B1, the binding result is recorded as “no binding”.

(Values after patent publication CN114702578A (BAISI MEDICAL DIAGNOSTICS TECH BEIJING CO LTD, dated 2022).)
